Results: the supplement of paper PMC10724198
± gives the standard deviation of the averaged measurements.

What was measured:
[1] = system: Saccharomyces cerevisiae; assay: protein stability index of tFT-peptide fusion (C-terminal peptide) (PSI (0-1 scale)); higher = more stable (slower turnover); conditions: genetic background: wild type; temperature: 30 C
[2] = system: Saccharomyces cerevisiae; assay: as above
Experimental: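 MPS profiling in S. cerevisiae of the tFT-X12 degron library: putative degron peptides plus stable controls, 12 aa, fused to the C-terminus of a sfGFP-mCherry timer. Cells are FACS-sorted into 8 mCherry/sfGFP bins and deep-sequenced. PSI runs from 0 (unstable) to 1 (stable). Backgrounds are wild type, das1Δ and doa10Δ at 30 °C, and wild type, das1Δ, cdc34-1 and cdc53-1 at 37 °C; 2-3 technical replicates each.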

[3] = genetic background: cdc34-1, temperature: 37 C
[4] = genetic background: cdc53-1, temperature: 37 C
[5] = genetic background: das1 deletion, temperature: 30 C
[6] = genetic background: das1 deletion, temperature: 37 C
[7] = genetic background: doa10 deletion, temperature: 30 C
[8] = genetic background: wild type, temperature: 30 C
[9] = genetic background: wild type, temperature: 37 C
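Also: PSI is a weighted mean of sequencing reads over stability bins, variants kept only with over 10 reads, mCherry proximal and sfGFP distal, peptide attached via GGGS linker.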

Sequence	protein stability index [1]	protein stability index [2, 3]	protein stability index [2, 4]	protein stability index [2, 5]	protein stability index [2, 6]	protein stability index [2, 7]	protein stability index [2, 8]	protein stability index [2, 9]
IKRLKEVARHVS	0.44 ± 0.054	0.623 ± 0.057	0.706 ± 0.017	0.645 ± 0.03	0.694 ± 0.0085	0.265 ± 0.019	0.256 ± 0.031	0.4381 ± 0.0021
ILGQSVIMRIKM	0.714 ± 0.075	0.673 ± 0.035	0.7301 ± 0.0028	0.615 ± 0.027	0.7007 ± 0.00077	0.606 ± 0.0061	0.636 ± 0.02	0.686 ± 0.014
ILLICLQFFNLF	0.4481 ± 0.0036	0.427 ± 0.057	0.544 ± 0.012	0.394 ± 0.035	0.5269 ± 0.0039	0.3502 ± 0.00069	0.36 ± 0.018	0.505 ± 0.0075
ILRIYIPRWRRQ	0.219 ± 0.087	0.648 ± 0.069	0.6821 ± 0.0054	0.62 ± 0.02	0.7292 ± 0.0032	0.119 ± 0.032	0.132 ± 0.035	0.332 ± 0.0091
INKKKKMIITKI	0.427 ± 0.019	0.617 ± 0.11	0.726 ± 0.011	0.662 ± 0.073	0.742 ± 0.063	0.227 ± 0.0025	0.253 ± 0.043	0.479 ± 0.015
IPRSCRIRLAVL	0.359 ± 0.014	0.658 ± 0.03	0.715 ± 0.0073	0.562 ± 0.032	0.7175 ± 0.0055	0.254 ± 0.0096	0.271 ± 0.027	0.359 ± 0.021
IQICLNRLRLFH	0.4361 ± 0.0038	0.654 ± 0.024	0.7 ± 0.01	0.63 ± 0.016	0.7002 ± 0.0018	0.251 ± 0.016	0.305 ± 0.02	0.573 ± 0.043
IRACGCSFLWVC	0.192 ± 0.035	0.465 ± 0.048	0.63 ± 0.01	0.5 ± 0.026	0.678 ± 0.0079	0.1113 ± 0.00066	0.106 ± 0.0056	0.118 ± 0.015
IRLCAASFMVVF	0.474 ± 0.017	0.501 ± 0.025	0.55 ± 0.03	0.414 ± 0.023	0.5352 ± 0.0027	0.3904 ± 0.0034	0.405 ± 0.023	0.524 ± 0.014
IRSRGLLIRWLS	0.182 ± 0.015	0.52 ± 0.025	0.679 ± 0.023	0.616 ± 0.026	0.721 ± 0.011	0.0894 ± 0.0094	0.0994 ± 0.033	0.148 ± 0.015
IVCAVTSIFLFF	0.315 ± 0.021	0.306 ± 0.015	0.45 ± 0.0079	0.288 ± 0.014	0.452 ± 0.016	0.243 ± 0.01	0.249 ± 0.035	0.422 ± 0.0045
IVRSLFGYLCVV	0.467 ± 0.037	0.571 ± 0.0099	0.609 ± 0.0076	0.524 ± 0.015	0.633 ± 0.0095	0.427 ± 0.0099	0.437 ± 0.022	0.569 ± 0.0066
KCVVMFFLRSVS	0.5 ± 0.026	0.636 ± 0.024	0.6956 ± 0.0065	0.529 ± 0.037	0.676 ± 0.022	0.396 ± 0.012	0.412 ± 0.011	0.598 ± 0.011
KFFRSWVLTSPA	0.494 ± 0.057	0.585 ± 0.06	0.607 ± 0.015	0.427 ± 0.032	0.6157 ± 0.0025	0.41 ± 0.021	0.444 ± 0.018	0.609 ± 0.021
KFRGMTLRNKVC	0.267 ± 0.013	0.545 ± 0.041	0.73 ± 0.047	0.657 ± 0.019	0.717 ± 0.017	0.093 ± 0.0025	0.1 ± 0.04	0.224 ± 0.069
KHTGTGNAPNCD	0.754 ± 0.056	0.686 ± 0.061	0.729 ± 0.024	0.649 ± 0.013	0.719 ± 0.011	0.647 ± 0.025	0.635 ± 0.011	0.712 ± 0.012
KIKKLKNRRKLV	0.166 ± 0.088	0.673 ± 0.0046	0.7717 ± 0.0033	0.625 ± 0.0071	0.7297 ± 0.003	0.0918 ± 0.019	0.0978 ± 0.0038	0.196 ± 0.032
KKKKQKKNNNKR	0.536 ± 0.074	0.699 ± 0.094	0.687 ± 0.15	0.676 ± 0.083	0.755 ± 0.034	0.668 ± 0.011	0.6 ± 0.027	0.698 ± 0.079
KLKDLTRIKIFR	0.722 ± 0.019	0.681 ± 0.0063	0.714 ± 0.033	0.666 ± 0.031	0.6989 ± 0.0069	0.6428 ± 0.002	0.6737 ± 0.0056	0.701 ± 0.011
KRARVIWKLVVV	0.445 ± 0.0046	0.59 ± 0.033	0.528 ± 0.008	0.408 ± 0.024	0.583 ± 0.006	0.23 ± 0.01	0.287 ± 0.015	0.4876 ± 0.0039

Sequence	protein stability index [1]	protein stability index [2, 3]	protein stability index [2, 4]	protein stability index [2, 5]	protein stability index [2, 6]	protein stability index [2, 7]	protein stability index [2, 8]	protein stability index [2, 9]
KRMVEKNKKKIN	0.31 ± 0.036	0.57 ± 0.063	0.747 ± 0.087	0.613 ± 0.029	0.729 ± 0.024	0.153 ± 0.024	0.201 ± 0.037	0.368 ± 0.012
KSSIGVWTLLIR	0.494 ± 0.016	0.282 ± 0.012	0.3 ± 0.026	0.337 ± 0.026	0.454 ± 0.022	0.564 ± 0.02	0.334 ± 0.035	0.423 ± 0.022
KSTLVRILVFHV	0.384 ± 0.071	0.559 ± 0.047	0.6474 ± 0.0042	0.458 ± 0.028	0.646 ± 0.044	0.2825 ± 0.0003	0.303 ± 0.0068	0.522 ± 0.0089
KYKANLGNLKVH	0.135 ± 0.056	0.596 ± 0.067	0.7161 ± 0.0013	0.632 ± 0.019	0.725 ± 0.029	0.0824 ± 0.011	0.0914 ± 0.05	0.101 ± 0.0031
LAPPFPVVLTPA	0.334 ± 0.015	0.294 ± 0.043	0.32381 ± 2.9e-05	0.263 ± 0.036	0.4137 ± 0.00012	0.219 ± 0.0087	0.267 ± 0.035	0.3816 ± 0.0013
LCGGEWVVWVKG	0.342 ± 0.0052	0.645 ± 0.023	0.7321 ± 0.0055	0.557 ± 0.02	0.721 ± 0.012	0.211 ± 0.0085	0.234 ± 0.026	0.477 ± 0.029
LCIFFWFSSFFL	0.493 ± 0.015	0.471 ± 0.028	0.561 ± 0.018	0.4 ± 0.021	0.5337 ± 0.0052	0.401 ± 0.0067	0.389 ± 0.019	0.505 ± 0.012
LCLICLFLLKVL	0.337 ± 0.022	0.477 ± 0.049	0.548 ± 0.048	0.395 ± 0.03	0.586 ± 0.0076	0.18 ± 0.018	0.201 ± 0.032	0.299 ± 0.017
LCRCPVGVFVLL	0.362 ± 0.012	0.516 ± 0.036	0.549 ± 0.031	0.39 ± 0.038	0.5395 ± 0.0021	0.356 ± 0.033	0.303 ± 0.035	0.469 ± 0.017
LCVVFCIRTYRV	0.335 ± 0.053	0.249 ± 0.027	0.437 ± 0.079	0.259 ± 0.038	0.476 ± 0.044	0.247 ± 0.031	0.251 ± 0.042	0.471 ± 0.027
LCYVLLWLLCRS	0.448 ± 0.027	0.45 ± 0.017	0.516 ± 0.049	0.349 ± 0.024	0.512 ± 0.0074	0.33 ± 0.0069	0.353 ± 0.026	0.501 ± 0.033
LDLPFESGIACF	0.361 ± 0.0063	0.32 ± 0.035	0.297 ± 0.0081	0.259 ± 0.032	0.436 ± 0.027	0.209 ± 0.02	0.263 ± 0.029	0.397 ± 0.015
LEGLLIRVYITF	0.288 ± 0.014	0.105 ± 0.034	0.234 ± 0.021	0.178 ± 0.019	0.3361 ± 0.00094	0.151 ± 0.017	0.173 ± 0.02	0.305 ± 0.0093
LFFFLFSLLIFF	0.301 ± 0.036	0.248 ± 0.019	0.25 ± 0.0039	0.349 ± 0.044	0.362 ± 0.0094	0.377 ± 0.014	0.259 ± 0.047	0.352 ± 0.011
LFFFRLFVFWVF	0.203 ± 0.0063	0.195 ± 0.034	0.173 ± 0.037	0.238 ± 0.021	0.369 ± 0.01	0.173 ± 0.014	0.157 ± 0.023	0.251 ± 0.0066
LFFFSFSFLFFL	0.278 ± 0.035	0.291 ± 0.07	0.29 ± 0.0037	0.302 ± 0.015	0.411 ± 0.00085	0.317 ± 0.024	0.245 ± 0.014	0.3202 ± 0.0027
LFFFVFFVLFSV	0.259 ± 0.075	0.2271 ± 0.00037	0.204 ± 0.0057	0.218 ± 0.013	0.3319 ± 0.0017	0.304 ± 0.013	0.211 ± 0.023	0.303 ± 0.016
LFFRLLCAFLFL	0.529 ± 0.046	0.532 ± 0.041	0.452 ± 0.012	0.499 ± 0.047	0.584 ± 0.017	0.578 ± 0.04	0.501 ± 0.012	0.5353 ± 0.0031
LFFVFCLFFIYF	0.247 ± 0.004	0.167 ± 0.031	0.102 ± 0.0085	0.235 ± 0.024	0.301 ± 0.0074	0.322 ± 0.0061	0.252 ± 0.017	0.264 ± 0.011
